Assay results as given in IntAct's records for PubMed 19617557.

B1: Gamma-aminobutyric acid receptor subunit beta-3 (Rattus norvegicus (Rat)), P63079 (parent)
chain: MWGFAGGRLFGIFSAPVLVAVVCCAQSVNDPGNMSFVKETVDKLLKGYDIRLRPDFGGPPVCVGMNIDIASIDMVSEVNMDYTLTMYFQQYWRDKRLAYSGIPLNLTLDNRVADQLWVPDTYFLNDKKSFVHGVTVKNRMIRLHPDGTVLYGLRITTTAACMMDLRRYPLDEQNCTLEIESYGYTTDDIEFYWRGGDKAVTGVERIELPQFSIVEHRLVSRNVVFATGAYPRLSLSFRLKRNIGYFILQTYMPSILITILSWVSFWINYDASAARVALGITTVLTMTTINTHLRETLPKIPYVKAIDMYLMGCFVFVFLALLEYAFVNYIFFGRGPQRQKKLAEKTAKAKNDRSKSEINRVDAHGNILLAPMDVHNEMNEVAGSVGDTRNSAISFDNSGIQYRKQSMPKEGHGRYMGDRSIPHKKTHLRRRSSQLKIKIPDLTDVNAIDRWSRIVFPFTFSLFNLVYWLYYVN

Variants of: B1
Settings: with ap2m1_rat Ap2m1, P84092
ap2m1_rat Ap2m1, P84092, sequence (P84092 whole entry): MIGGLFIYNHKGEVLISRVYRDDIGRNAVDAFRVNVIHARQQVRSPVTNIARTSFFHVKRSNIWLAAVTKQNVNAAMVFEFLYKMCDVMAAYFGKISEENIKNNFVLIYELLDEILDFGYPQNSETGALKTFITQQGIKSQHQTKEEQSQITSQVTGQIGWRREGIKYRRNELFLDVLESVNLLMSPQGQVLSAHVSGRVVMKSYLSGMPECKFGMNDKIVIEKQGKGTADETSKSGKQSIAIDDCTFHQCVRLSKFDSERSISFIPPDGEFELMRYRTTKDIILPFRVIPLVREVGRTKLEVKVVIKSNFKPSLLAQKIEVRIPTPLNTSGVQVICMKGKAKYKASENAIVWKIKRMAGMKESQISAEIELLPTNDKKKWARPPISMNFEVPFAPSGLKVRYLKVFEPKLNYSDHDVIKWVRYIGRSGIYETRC

effect of a mutation on the interaction | Variant
decreasing interaction strength | MWGFAGGRLFGIFSAPVLVAVVCCAQSVNDPGNMSFVKETVDKLLKGYDIRLRPDFGGPPVCVGMNIDIASIDMVSEVNMDYTLTMYFQQYWRDKRLAYSGIPLNLTLDNRVADQLWVPDTYFLNDKKSFVHGVTVKNRMIRLHPDGTVLYGLRITTTAACMMDLRRYPLDEQNCTLEIESYGYTTDDIEFYWRGGDKAVTGVERIELPQFSIVEHRLVSRNVVFATGAYPRLSLSFRLKRNIGYFILQTYMPSILITILSWVSFWINYDASAARVALGITTVLTMTTINTHLRETLPKIPYVKAIDMYLMGCFVFVFLALLEYAFVNYIFFGRGPQRQKKLAEKTAKAKNDRSKSEINRVDAHGNILLAPMDVHNEMNEVAGSVGDTRNSAISFDNSGIQYRKQSMPKEGHGRYMGDRSIPHKKTHLRRRAAQLKIKIPDLTDVNAIDRWSRIVFPFTFSLFNLVYWLYYVN [S432A;S433A]
